According to PMC7691434, “Interaction Analysis of a Plasmodium falciparum PHISTa-like Protein and PfEMP1 Proteins” (Frontiers in Microbiology, 2020):

T1: PF3D7_0800200 (acidic C-terminal segment (ATS) domain, 2,466-2,858 aa)-His (Plasmodium falciparum, UniProt Q8IAK2 2466-2858)
T1 construct: the reverse primer has no stop codon), which would give a C-terminal His tag; also called ATS-His; PfEMP1 ATS; source: E. coli BL21 (DE3), purified
T1 sequence: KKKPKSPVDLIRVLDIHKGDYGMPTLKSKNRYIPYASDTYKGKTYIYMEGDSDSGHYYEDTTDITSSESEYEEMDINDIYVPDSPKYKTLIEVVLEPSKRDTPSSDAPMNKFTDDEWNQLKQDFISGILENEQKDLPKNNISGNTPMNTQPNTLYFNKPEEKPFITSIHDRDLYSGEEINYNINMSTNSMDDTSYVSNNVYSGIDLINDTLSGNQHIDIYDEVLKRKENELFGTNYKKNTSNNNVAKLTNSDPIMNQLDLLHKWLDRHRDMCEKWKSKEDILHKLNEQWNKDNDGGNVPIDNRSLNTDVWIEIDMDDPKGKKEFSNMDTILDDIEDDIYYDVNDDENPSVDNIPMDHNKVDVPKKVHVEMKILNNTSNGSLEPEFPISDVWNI

T2: PF3D7_0800200 (ATS domain, 2,466-2,858 aa)-His (Plasmodium falciparum, UniProt Q8IAK2 2466-2858)
T2 construct: Cloned into pET-28a; also called ATS-His; PfEMP1 ATS; source: E. coli BL21 (DE3), purified
T2 sequence: T1 sequence

B1: PF3D7_1372300-(27-129)-GST (domain or fragment)
chain: RNEIHKNSLGFGKNDNIYSRNLAQLKLSNYSLLKDSKFESVTEQLTREELYELFDLLVQVPPRTYLLNIWNHKNGICRQGTKDLLKNLRGIAPKLTYRHTGNT
notes: PF3D7_1372300, a PHIST/PHISTa-like protein of Plasmodium falciparum, residues 27-129; purified 'according to the methods described above'; also called PF3D7_1372300 (residues 27-129); source: E. coli BL21 (DE3), purified
B2: PF3D7_1372300-(27-129)-GST (domain or fragment)
chain: B1 chain
notes: PF3D7_1372300, PHIST/PHISTa-like protein of Plasmodium falciparum, residues 27-129; source: E. coli BL21 (DE3), purified (according to the methods described for the other recombinant proteins)
B3: PF3D7_1372300 (27-206 aa)-GST (domain or fragment)
chain: RNEIHKNSLGFGKNDNIYSRNLAQLKLSNYSLLKDSKFESVTEQLTREELYELFDLLVQVPPRTYLLNIWNHKNGICRQGTKDLLKNLRGIAPKLTYRHTGNTNQYGKSPPKITWQGCSYDCNMMVSTLETEQTNRFYNLLNKKAPIDEIKSFIRSCIDEFDKLHTDLYVKYEKIFSEQK
notes: PF3D7_1372300, a PHIST/PHISTa-like protein of Plasmodium falciparum, residues 27-206 (without the 25-residue signal peptide), amplified from P. falciparum cDNA; the reverse primer carries a stop codon; also called PF3D7_1372300-GST; 1372300-GST; source: E. coli BL21 (DE3), purified
B4: PF3D7_1372300 (27-206 aa)-GST (domain or fragment)
chain: B3 chain
notes: PF3D7_1372300, PHIST/PHISTa-like protein of Plasmodium falciparum, residues 27-206 (without the 25 amino acid signal peptide), amplified from P. falciparum cDNA; Cloned into pGEX-4T-1; also called PF3D7_1372300-GST; PHIST/PHISTa-like protein; source: E. coli BL21 (DE3), purified
B5: PF3D7_1372300-(130-206)-GST (domain or fragment)
chain: NQYGKSPPKITWQGCSYDCNMMVSTLETEQTNRFYNLLNKKAPIDEIKSFIRSCIDEFDKLHTDLYVKYEKIFSEQK
notes: PF3D7_1372300, a PHIST/PHISTa-like protein of Plasmodium falciparum, residues 130-206; purified 'according to the methods described above'; also called PF3D7_1372300 (residues 130-206); source: E. coli BL21 (DE3), purified
B6: PF3D7_1372300-(130-206)-GST (domain or fragment)
chain: B5 chain
notes: PF3D7_1372300, PHIST/PHISTa-like protein of Plasmodium falciparum, residues 130-206; source: E. coli BL21 (DE3), purified (according to the methods described for the other recombinant proteins)

Key:
[1] = molecular target: PF3D7_0800200 (ATS domain, 2,466-2,858 aa)-His (Plasmodium falciparum) (UniProt Q8IAK2); test: BLI; Octet K2; ATS-His loaded onto Ni-NTA biosensors; GST-tagged analyte diluted from 1,000 to 62.5 nM in PBS with 0.02% Tween-20; association and dissociation 5 min each; non-linear global fit
[2] = molecular target: T1, PF3D7_0800200 (acidic C-terminal …); test: BLI; Octet K2 (ForteBio); ATS-His loaded onto Ni-NTA biosensors; GST-tagged protein in solution diluted from 1,000 to 62.5 nM in PBS with 0.02% Tween-20; association and dissociation 5 min each; non-linear global fit; KD calculated as Kdis/Kon; conditions: both partners purified
[3] = molecular target: T2, PF3D7_0800200 (ATS domain, 2,466-2,858 …); test: BLI; Octet K2; ATS-His loaded onto Ni-NTA biosensors; GST-tagged analyte diluted from 1,000 to 62.5 nM in PBS with 0.02% Tween-20; association and dissociation 5 min each; non-linear global fit; conditions: both partners purified

Molecule | Kd [1] | koff [2] | kon [2] | Kd [3]
GST | < 0.001 nM | – | – | –
B1 | – | 0.000844 s⁻¹ | 6630 M⁻¹ s⁻¹ | –
B2 | – | – | – | 127 nM
B3 | – | 0.000756 s⁻¹ | 6330 M⁻¹ s⁻¹ | –
B4 | – | – | – | 119 nM
B5 | – | 0.000158 s⁻¹ | 6960 M⁻¹ s⁻¹ | –
B6 | – | – | – | 22.6 nM
